Assay results from article PMC10573625, “Interaction of VvDELLA2 and VvCEB1 Mediates Expression of Expansion-Related Gene during GA-Induced Enlargement of Grape Fruit”.
Residue numbers refer to the chain shown, from its start.

T1: VvCEB1 (UniProt I6QS36 1-270)
T1 sequence: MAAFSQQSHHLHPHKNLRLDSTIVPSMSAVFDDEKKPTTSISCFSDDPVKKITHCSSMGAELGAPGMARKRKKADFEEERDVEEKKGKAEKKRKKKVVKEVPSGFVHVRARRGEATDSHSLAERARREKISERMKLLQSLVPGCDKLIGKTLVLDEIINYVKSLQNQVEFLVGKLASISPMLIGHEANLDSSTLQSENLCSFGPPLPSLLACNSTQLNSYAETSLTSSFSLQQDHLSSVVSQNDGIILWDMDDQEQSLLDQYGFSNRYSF

B1: PVvEXPA8-biotin (dsDNA)
DNA 1: TGGTAGTCTAACTTGAACAAAACATATGCATGTGCAG
DNA 2: CTGCACATGCATATGTTTTGTTCAAGTTAGACTACCA
B2: PVvEXPA8 (unlabelled competitor) (dsDNA)
DNA 1: TTGGTAGTCTAACTTGAACAAAACATATGCATGTGCAG
DNA 2: B1 DNA 2
B3: PVvEXPA8-mut (dsDNA)
DNA 1: B1 DNA 1 with G32T, G34T
DNA 2: B1 DNA 2 with C4A, C6A
B4: PVvEXPA11-biotin (dsDNA)
DNA 1: CTACTTGCAGAGATCACATGTGAGGCTGTTGCATT
DNA 2: AATGCAACAGCCTCACATGTGATCTCTGCAAGTAG
B5: PVvEXPA11 (unlabelled competitor) (dsDNA)
DNA 1: B4 DNA 1
DNA 2: B4 DNA 2
B6: PVvEXPA11-mut (dsDNA)
DNA 1: B4 DNA 1 with G20T, G22T
DNA 2: B4 DNA 2 with C14A, C16A

Columns and labels:
VvCEB1 [1] = target: T1, VvCEB1; assay: EMSA; Binding buffer, salt, pH and temperature not stated; Beyotime chemiluminescent biotin-labelled nucleic acid detection kit; probes annealed at 72 C for 30 min; details: protein: recombinant; tags: His (pET-30a(+)); chain copies: 2; label: 5'-biotin; blunt
VvCEB1 [2] = target: T1, VvCEB1; assay: competition; unlabelled competitor against biotin probe N1; band significantly weakened; Binding buffer, salt, pH and temperature not stated; Beyotime chemiluminescent biotin-labelled nucleic acid detection kit; probes annealed at 72 C for 30 min; details: protein: recombinant; tags: His (pET-30a(+)); chain copies: 2; 5' overhang 1 nt as printed
VvCEB1 [3] = target: T1, VvCEB1; assay: EMSA; band disappeared completely with mutated probe; Binding buffer, salt, pH and temperature not stated; Beyotime chemiluminescent biotin-labelled nucleic acid detection kit; probes annealed at 72 C for 30 min; details: protein: recombinant; tags: His (pET-30a(+)); chain copies: 2; blunt
VvCEB1 [4] = target: T1, VvCEB1; assay: competition; unlabelled competitor against biotin probe N4; band significantly weakened; Binding buffer, salt, pH and temperature not stated; Beyotime chemiluminescent biotin-labelled nucleic acid detection kit; probes annealed at 72 C for 30 min; details: protein: recombinant; tags: His (pET-30a(+)); chain copies: 2; blunt

Binder | binding result (VvCEB1 [1]) | binding result (VvCEB1 [3]) | other results
B1 | binds |  | 
B2 |  |  | binding result (VvCEB1 [2]): binds
B3 |  | no binding | 
B4 | binds |  | 
B5 |  |  | binding result (VvCEB1 [4]): binds
B6 |  | no binding | 
